Assays:
RNAP β' subunit = target: T1, RNAP β' subunit (Escherichia coli, UniProt P0A8T7 1-1407); assay: cryo-EM structure; RapA–RNAP complex purified by gel filtration, 10 μM incubated with 25 μM DNA/RNA hybrid in 20 mM Tris–HCl pH 7.5, 50 mM NaCl, 5 mM MgCl2, 0.2 mM AMPPNP at 37°C for 10 min; 8 mM CHAPSO added before grids; 3.4 Å map; settings: both partners purified
T1 construct: RNA polymerase beta' subunit, Escherichia coli, as in the core enzyme m2; Stood in the structure as a subunit of the RNAP elongation complex; source: part of the purified E. coli RNAP core enzyme

RNAP β subunit = target: T2, RNAP β subunit (Escherichia coli, UniProt P0A8V2 1-1342); assay: as above; settings: both partners purified
T2 construct: RNA polymerase beta subunit, Escherichia coli, as in the core enzyme m2; Stood in the structure as a subunit of the RNAP elongation complex; also called β flap tip helix (FTH) lies in it; source: part of the purified E. coli RNAP core enzyme
T2 sequence (P0A8V2 whole entry): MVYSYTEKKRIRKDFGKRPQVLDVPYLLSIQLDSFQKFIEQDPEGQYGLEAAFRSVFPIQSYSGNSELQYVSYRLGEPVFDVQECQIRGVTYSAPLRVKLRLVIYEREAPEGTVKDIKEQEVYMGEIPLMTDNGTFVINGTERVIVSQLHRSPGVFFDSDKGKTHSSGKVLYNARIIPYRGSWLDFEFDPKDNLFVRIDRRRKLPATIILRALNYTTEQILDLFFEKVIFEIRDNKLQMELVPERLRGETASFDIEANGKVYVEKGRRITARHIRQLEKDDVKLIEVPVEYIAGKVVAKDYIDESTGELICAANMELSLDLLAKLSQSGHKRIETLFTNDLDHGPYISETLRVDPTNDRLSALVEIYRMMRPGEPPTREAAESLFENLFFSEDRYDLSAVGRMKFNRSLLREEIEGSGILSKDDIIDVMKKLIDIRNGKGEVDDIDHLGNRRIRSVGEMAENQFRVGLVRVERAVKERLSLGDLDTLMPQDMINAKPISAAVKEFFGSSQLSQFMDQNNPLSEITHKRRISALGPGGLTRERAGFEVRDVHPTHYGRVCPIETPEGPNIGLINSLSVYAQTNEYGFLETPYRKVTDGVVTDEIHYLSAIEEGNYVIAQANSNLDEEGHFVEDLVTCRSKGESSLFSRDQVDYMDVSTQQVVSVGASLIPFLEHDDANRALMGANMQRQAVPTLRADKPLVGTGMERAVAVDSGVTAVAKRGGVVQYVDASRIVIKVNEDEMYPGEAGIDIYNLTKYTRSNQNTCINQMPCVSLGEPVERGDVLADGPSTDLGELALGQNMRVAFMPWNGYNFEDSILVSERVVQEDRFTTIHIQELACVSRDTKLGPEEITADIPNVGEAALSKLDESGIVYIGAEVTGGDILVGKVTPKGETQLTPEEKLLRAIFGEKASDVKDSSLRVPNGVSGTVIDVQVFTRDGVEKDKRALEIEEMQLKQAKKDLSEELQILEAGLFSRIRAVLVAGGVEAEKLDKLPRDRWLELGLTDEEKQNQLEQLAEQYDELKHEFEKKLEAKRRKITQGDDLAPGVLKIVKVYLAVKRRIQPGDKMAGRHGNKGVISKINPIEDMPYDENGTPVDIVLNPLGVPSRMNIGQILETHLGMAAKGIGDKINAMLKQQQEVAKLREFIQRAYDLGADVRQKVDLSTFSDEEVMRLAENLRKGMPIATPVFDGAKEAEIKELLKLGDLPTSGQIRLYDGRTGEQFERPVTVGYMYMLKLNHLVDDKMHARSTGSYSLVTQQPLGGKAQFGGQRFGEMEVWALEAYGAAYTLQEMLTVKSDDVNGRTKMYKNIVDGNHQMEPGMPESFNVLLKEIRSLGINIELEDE

T1 sequence (P0A8T7 whole entry): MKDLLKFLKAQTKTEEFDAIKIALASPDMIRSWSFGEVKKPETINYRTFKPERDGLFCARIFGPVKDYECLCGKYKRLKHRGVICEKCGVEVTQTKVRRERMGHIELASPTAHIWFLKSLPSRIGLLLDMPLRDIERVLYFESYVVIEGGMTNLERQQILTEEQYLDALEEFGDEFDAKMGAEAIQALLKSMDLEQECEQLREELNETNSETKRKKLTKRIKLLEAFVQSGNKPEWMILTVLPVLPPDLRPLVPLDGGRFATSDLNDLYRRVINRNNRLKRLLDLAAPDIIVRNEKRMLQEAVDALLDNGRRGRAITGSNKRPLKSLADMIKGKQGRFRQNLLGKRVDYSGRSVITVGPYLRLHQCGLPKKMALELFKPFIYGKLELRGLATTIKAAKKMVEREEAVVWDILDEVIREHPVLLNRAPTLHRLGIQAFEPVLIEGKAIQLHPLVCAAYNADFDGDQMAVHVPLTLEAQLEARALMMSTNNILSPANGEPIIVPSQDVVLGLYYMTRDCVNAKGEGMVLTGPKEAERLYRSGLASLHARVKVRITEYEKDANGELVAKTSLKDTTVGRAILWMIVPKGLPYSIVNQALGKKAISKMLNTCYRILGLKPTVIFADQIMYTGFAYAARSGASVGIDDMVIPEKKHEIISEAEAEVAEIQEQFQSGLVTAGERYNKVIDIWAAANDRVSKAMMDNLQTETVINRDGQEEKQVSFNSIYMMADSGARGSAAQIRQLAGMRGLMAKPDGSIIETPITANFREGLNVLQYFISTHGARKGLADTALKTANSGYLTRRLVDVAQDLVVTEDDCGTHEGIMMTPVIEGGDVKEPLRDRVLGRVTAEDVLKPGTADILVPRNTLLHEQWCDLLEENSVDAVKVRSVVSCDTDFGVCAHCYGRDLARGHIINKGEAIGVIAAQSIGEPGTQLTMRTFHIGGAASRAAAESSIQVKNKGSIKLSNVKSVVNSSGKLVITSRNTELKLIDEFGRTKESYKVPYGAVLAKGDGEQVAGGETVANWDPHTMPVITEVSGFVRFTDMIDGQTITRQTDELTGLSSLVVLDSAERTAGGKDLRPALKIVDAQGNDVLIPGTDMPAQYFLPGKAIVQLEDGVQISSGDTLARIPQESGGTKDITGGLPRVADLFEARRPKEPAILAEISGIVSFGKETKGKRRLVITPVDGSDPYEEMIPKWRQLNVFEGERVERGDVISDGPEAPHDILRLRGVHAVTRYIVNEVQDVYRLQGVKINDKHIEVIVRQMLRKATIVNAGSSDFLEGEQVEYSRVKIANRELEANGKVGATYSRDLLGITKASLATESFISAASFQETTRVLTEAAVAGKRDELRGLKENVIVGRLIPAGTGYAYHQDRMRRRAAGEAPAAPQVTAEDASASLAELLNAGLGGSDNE

B1: N-terminal His-tagged RapA protein (enzyme, Escherichia coli)
chain: MPFTLGQRWISDTESELGLGTVVAVDARTVTLLFPSTGENRLYARSDSPVTRVMFNPGDTITSHDGWQMQVEEVKEENGLLTYIGTRLDTEESGVALREVFLDSKLVFSKPQDRLFAGQIDRMDRFALRYRARKYSSEQFRMPYSGLRGQRTSLIPHQLNIAHDVGRRHAPRVLLADEVGLGKTIEAGMILHQQLLSGAAERVLIIVPETLQHQWLVEMLRRFNLRFALFDDERYAEAQHDAYNPFDTEQLVICSLDFARRSKQRLEHLCEAEWDLLVVDEAHHLVWSEDAPSREYQAIEQLAEHVPGVLLLTATPEQLGMESHFARLRLLDPNRFHDFAQFVEEQKNYRPVADAVAMLLAGNKLSNDELNMLGEMIGEQDIEPLLQAANSDSEDAQSARQELVSMLMDRHGTSRVLFRNTRNGVKGFPKRELHTIKLPLPTQYQTAIKVSGIMGARKSAEDRARDMLYPERIYQEFEGDNATWWNFDPRVEWLMGYLTSHRSQKVLVICAKAATALQLEQVLREREGIRAAVFHEGMSIIERDRAAAWFAEEDTGAQVLLCSEIGSEGRNFQFASHMVMFDLPFNPDLLEQRIGRLDRIGQAHDIQIHVPYLEKTAQSVLVRWYHEGLDAFEHTCPTGRTIYDSVYNDLINYLASPDQTEGFDDLIKNCREQHEALKAQLEQGRDRLLEIHSNGGEKAQALAESIEEQDDDTNLIAFAMNLFDIIGINQDDRGDNMIVLTPSDHMLVPDFPGLSEDGITITFDREVALAREDAQFITWEHPLIRNGLDLILSGDTGSSTISLLKNKALPVGTLLVELIYVVEAQAPKQLQLNRFLPPTPVRMLLDKNGNNLAAQVEFETFNRQLNAVNRHTGSKLVNAVQQDVHAILQLGEAQIEKSARALIDAARNEADEKLSAELSRLEALRAVNPNIRDDELTAIESNRQQVMESLDQAGWRLDALRLIVVTHQ
notes: RapA (HepA), RNA polymerase-associated Swi2/Snf2 ATPase, Escherichia coli; construct of the cryo-EM sample; also called HepA
RNAP β' subunit
  binding result: binds
RNAP β subunit
  binding result: binds

— article PMC8501970, “Structural basis for activation of Swi2/Snf2 ATPase RapA by RNA polymerase” (Nucleic Acids Research, 2021)
